Series [1] deals with T1, native plasminogen glycoform II (purified in-house from human plasma), P00747.
T1 chain: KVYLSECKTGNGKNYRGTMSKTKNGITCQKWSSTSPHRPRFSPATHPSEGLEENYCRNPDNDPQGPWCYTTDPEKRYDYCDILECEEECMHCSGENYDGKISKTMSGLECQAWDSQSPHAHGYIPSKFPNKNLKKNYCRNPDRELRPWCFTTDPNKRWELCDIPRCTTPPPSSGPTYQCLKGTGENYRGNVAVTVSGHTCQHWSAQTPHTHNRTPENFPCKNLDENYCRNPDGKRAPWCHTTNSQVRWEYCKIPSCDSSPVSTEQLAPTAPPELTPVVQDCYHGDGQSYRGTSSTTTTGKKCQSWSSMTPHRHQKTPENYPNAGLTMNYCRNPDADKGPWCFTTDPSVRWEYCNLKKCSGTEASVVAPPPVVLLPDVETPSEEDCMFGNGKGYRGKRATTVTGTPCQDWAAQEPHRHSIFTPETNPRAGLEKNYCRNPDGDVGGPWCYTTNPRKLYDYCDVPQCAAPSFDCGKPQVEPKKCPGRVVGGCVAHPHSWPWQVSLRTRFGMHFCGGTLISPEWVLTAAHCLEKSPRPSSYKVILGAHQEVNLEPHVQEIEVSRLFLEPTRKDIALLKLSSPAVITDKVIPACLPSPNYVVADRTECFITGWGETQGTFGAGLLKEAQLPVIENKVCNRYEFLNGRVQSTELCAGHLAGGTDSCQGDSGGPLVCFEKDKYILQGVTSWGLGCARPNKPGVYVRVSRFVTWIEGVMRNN

The next series deals with T2, recombinant plasminogen.
T2 chain: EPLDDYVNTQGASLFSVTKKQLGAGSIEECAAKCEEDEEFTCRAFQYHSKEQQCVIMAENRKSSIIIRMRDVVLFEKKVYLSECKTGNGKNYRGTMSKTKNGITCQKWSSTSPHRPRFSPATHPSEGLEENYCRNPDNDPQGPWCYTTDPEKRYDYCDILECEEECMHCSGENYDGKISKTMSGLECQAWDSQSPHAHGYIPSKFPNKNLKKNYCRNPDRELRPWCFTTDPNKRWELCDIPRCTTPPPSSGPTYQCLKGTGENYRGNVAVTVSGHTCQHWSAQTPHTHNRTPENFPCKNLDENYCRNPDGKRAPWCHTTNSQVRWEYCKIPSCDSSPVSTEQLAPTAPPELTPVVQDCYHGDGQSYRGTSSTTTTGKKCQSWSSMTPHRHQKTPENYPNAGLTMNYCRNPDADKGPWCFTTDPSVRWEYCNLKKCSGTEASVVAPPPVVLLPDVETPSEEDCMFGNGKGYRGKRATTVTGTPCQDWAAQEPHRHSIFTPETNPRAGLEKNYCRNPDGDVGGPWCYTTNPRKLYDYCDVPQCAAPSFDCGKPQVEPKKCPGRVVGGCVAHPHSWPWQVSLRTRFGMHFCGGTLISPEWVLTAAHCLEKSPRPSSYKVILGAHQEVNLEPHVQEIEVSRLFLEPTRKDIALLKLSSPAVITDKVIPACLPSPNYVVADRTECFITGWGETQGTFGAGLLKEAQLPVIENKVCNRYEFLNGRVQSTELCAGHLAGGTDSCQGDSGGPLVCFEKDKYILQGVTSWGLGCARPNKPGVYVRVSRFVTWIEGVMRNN

The target in series [2] is T3, native plasminogen glycoform I (purified in-house from human plasma), P00747.
T3 chain: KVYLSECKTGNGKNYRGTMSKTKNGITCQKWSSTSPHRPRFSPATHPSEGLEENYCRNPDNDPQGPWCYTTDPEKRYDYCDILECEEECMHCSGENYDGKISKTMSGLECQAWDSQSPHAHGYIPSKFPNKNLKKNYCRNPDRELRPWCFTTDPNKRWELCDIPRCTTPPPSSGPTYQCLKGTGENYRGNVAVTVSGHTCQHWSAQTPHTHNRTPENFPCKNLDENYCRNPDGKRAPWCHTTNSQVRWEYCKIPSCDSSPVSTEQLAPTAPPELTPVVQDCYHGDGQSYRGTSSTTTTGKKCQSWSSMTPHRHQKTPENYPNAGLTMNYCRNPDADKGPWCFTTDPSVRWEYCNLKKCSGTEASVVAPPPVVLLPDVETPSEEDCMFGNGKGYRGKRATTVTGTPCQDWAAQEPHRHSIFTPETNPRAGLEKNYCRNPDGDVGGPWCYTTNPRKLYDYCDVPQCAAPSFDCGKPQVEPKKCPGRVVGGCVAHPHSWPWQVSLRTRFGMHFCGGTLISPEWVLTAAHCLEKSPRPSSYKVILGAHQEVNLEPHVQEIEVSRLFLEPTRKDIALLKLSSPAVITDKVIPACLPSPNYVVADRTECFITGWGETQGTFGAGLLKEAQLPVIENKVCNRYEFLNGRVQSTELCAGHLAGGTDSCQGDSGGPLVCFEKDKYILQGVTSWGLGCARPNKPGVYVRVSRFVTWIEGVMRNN

B1: tissue-type plasminogen activator (protein)
chain: SYQVICRDEKTQMIYQQHQSWLRPVLRSNRVEYCWCNSGRAQCHSVPVKSCSEPRCFNGGTCQQALYFSDFVCQCPEGFAGKCCEIDTRATCYEDQGISYRGTWSTAESGAECTNWNSSALAQKPYSGRRPDAIRLGLGNHNYCRNPDRDSKPWCYVFKAGKYSSEFCSTPACSEGNSDCYFGNGSAYRGTHSLTESGASCLPWNSMILIGKVYTAQNPSAQALGLGKHNYCRNPDGDAKPWCHVLKNRRLTWEYCDVPSCSTCGLRQYSQPQFRIKGGLFADIASHPWQAAIFAKHRRSPGERFLCGGILISSCWILSAAHCFQERFPPHHLTVILGRTYRVVPGEEEQKFEVEKYIVHKEFDDDTYDNDIALLQLKSDSSRCAQESSVVRTVCLPPADLQLPDWTECELSGYGKHEALSPFYSERLKEAHVRLYPSSRCTSQHLLNRTVTDNMLCAGDTRSGGPQANLHDACQGDSGGPLVCLNDGRMTLVGIISWGLGCGQKDVPGVYTKVTNYLDWIRDNMRP
Consider B1, for which the Km (nM) of Plg activation by tPA in series [1] was determined as 146 nM; with recombinant plasminogen, 139 nM; in series [2] it was 163 nM. For the same protein, the Vmax (nM/s) of Plg activation by tPA in series [1] was found to be 1.67 nM/s; with recombinant plasminogen, 3.47 nM/s; in series [2] it was 3.06 nM/s. Further, the “cleavage to plasmin, SDS-PAGE under reducing conditions” value in the series with recombinant plasminogen is reported as “tPA-cleaved recombinant plasmin (rPlm) resulting from the cleavage of rPlg by tPA”.

Source of the values: patent publication US20220267751.
